Source: paper doi:10.1101/2025.05.26.656073 (bioRxiv, 2025)
Numbering of substitutions follows the chain as printed. Names may count otherwise.

Experiments:
[1] = molecular target: T1, apo-OCP (carotenoid-free Orange Carotenoid Protein) (Synechocystis sp. PCC 6803), P74102; assay: SAXS; conditions: remark: other sources report otherwise
T1 chain: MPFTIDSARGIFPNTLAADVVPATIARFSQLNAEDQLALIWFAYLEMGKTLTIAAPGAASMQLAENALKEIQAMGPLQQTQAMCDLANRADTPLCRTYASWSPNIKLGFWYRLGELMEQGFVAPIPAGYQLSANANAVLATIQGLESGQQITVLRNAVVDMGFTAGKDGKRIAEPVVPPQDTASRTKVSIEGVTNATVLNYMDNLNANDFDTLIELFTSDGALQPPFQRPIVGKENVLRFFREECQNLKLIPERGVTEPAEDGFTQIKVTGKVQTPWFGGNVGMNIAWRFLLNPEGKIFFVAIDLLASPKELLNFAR

[2] = molecular target: T1, apo-OCP (carotenoid-free Orange …); assay: SEC; conditions: remark: other sources report otherwise
[3] = molecular target: T2, Orange Carotenoid Protein, light-adapted state (OCP^R), wild type, canthaxanthin-binding holo form (Synechocystis sp. PCC 6803), P74102; assay: SAXS; conditions: remark: other sources report otherwise
T2 chain: T1 chain

[4] = molecular target: T2, Orange Carotenoid Protein, …; assay: SEC; conditions: remark: other sources report otherwise
SEC = molecular target: the molecule itself; assay: SEC
[5] = molecular target: T3, Orange Carotenoid Protein, dark-adapted state (OCP^O), wild type, canthaxanthin-binding holo form (Synechocystis sp. PCC 6803), P74102; assay: SAXS; conditions: remark: other sources report otherwise
T3 chain: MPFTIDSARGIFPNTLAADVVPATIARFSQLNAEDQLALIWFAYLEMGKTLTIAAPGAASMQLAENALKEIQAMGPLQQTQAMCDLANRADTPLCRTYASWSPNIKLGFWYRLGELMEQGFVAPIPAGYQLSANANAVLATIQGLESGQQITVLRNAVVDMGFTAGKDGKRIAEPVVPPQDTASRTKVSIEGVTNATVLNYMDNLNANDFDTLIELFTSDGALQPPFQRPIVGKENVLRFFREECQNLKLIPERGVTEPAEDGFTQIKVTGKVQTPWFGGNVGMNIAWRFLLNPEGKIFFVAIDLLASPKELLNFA

[6] = molecular target: T3, Orange Carotenoid Protein, dark-adapted …; assay: transient grating spectroscopy; conditions: remark: other sources report otherwise
[7] = molecular target: T3, Orange Carotenoid Protein, dark-adapted …; assay: SEC; conditions: remark: other sources report otherwise

B1: apo-OCP (carotenoid-free Orange Carotenoid Protein), P74102 1-317 (natural protein)
chain: T1 chain
stoichiometry N [1]: 2
Kd [2]: 500 nM
stoichiometry N [2]: 2

B2: Orange Carotenoid Protein, light-adapted state (OCP^R), wild type, canthaxanthin-binding holo form, P74102 1-317 (natural protein)
chain: T1 chain
stoichiometry N [3]: 2
Kd [4]: 1800 nM
stoichiometry N [4]: 2

B3: OCP(R27L) mutant, light-adapted state (natural protein)
chain: T1 chain with R27L
stoichiometry N (SEC): 2

B4: Orange Carotenoid Protein, dark-adapted state (OCP^O), wild type, canthaxanthin-binding holo form, P74102 1-316 (natural protein)
chain: T3 chain
stoichiometry N [5]: 2
fitted dimer fraction (100 µM) [6]: 0.6
k1d (rate constant of the photo-induced dissociation of the OCP^O dimer) [6]: 1000 s⁻¹
Kd [7]: 10000 nM
stoichiometry N [7]: 2
